This assay addresses CXCR3 chemotactic receptor (human (endogenous in PBMC)) (UniProt P49682).

A value given as a limit tells only on which side of the number the result lay.

UniProt P49682, sequence (P49682 whole entry): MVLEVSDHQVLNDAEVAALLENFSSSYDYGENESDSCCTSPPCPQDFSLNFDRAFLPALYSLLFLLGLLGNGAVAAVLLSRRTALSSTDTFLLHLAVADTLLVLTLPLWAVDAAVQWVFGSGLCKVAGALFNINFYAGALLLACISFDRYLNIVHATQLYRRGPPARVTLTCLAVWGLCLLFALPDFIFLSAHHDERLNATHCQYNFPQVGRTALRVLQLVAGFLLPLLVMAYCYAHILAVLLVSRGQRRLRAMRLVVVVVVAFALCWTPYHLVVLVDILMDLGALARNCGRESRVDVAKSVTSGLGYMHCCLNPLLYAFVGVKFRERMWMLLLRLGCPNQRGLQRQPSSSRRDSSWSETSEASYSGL

The substance “Tag7-Mts1 complex (from UniProt O75594 22-196; P26447 1-101)” gave a chemotaxis of PBMC (Boyden chamber, Tag7-Mts1 at 10^-9 M) after preincubation of the cells with antibodies to CXCR3; reduction of migration below 20%.

For the origin of these results see PMC6351033.
